# According to FireProtDB (doi:10.1006/jmbi.2001.5050):
# B1: Cold shock protein CspB wild type, P41016 (protein)
# chain: MQRGKVKWFNNEKGYGFIEVEGGSDVFVHFTAIQGEGFKTLEEGQEVSFEIVQGNRGPQAANVVKL
# Settings: Bacillus caldolyticus, pH 7, CD, sodium cacodylate-HCl 100 mM, reversible: yes, whole UniProt chain shown
protein,measurement,setting,value
B1,denaturant m value,"25 °C, GdnHCl",1.77 kcal/mol/M
same,denaturant midpoint (higher = more stable),"25 °C, GdnHCl",2.68 M
same,unfolding free energy,"25 °C, GdnHCl",1.2 kcal/mol
same,unfolding free energy,"70 °C, Thermal, NaCl 2 M",2.2 kcal/mol
same,unfolding free energy,"70 °C, Thermal",1.08 kcal/mol
same,Tm,Thermal,76.9 °C
same,unfolding enthalpy (van 't Hoff),Thermal,58.6 kcal/mol
